The source of these data is patent US20050164933A1.

A word on the EC50: it is the concentration needed to bring the measured effect to its halfway point. Higher therefore signals a less potent agent.

Experiment in all cases: G3 assay titration, immobilised GST-PDZ
For experiment [1], the target named is T1, GST-INADL PDZ domain 3 fusion protein (human), Q8NI35.
T1 chain: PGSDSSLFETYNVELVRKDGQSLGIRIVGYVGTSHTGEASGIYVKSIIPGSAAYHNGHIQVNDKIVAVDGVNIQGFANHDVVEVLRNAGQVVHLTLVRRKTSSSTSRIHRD

In experiment [2] the target is T2, GST-ZO-1 PDZ domain 2 fusion protein (human).
T2 chain: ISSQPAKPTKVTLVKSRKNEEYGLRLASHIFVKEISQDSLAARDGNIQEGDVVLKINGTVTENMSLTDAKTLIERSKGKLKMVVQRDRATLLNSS

For experiment [3], the target named is T3, GST-TIP1 PDZ domain 1 fusion protein (human), O14907.
T3 chain: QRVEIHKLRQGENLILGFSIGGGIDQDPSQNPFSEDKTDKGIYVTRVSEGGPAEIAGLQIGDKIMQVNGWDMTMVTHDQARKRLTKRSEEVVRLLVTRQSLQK

Experiment [4] has as its target T4, GST-KIAA1284 PDZ domain 1 fusion protein (human), Q9ULD6.
T4 chain: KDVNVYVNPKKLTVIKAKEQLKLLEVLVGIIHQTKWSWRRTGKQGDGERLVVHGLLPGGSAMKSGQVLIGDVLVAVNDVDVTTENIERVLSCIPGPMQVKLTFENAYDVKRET

For experiment [5], the target named is T5, GST-LIM mystique PDZ domain 1 fusion protein (human), Q96JY6.
T5 chain: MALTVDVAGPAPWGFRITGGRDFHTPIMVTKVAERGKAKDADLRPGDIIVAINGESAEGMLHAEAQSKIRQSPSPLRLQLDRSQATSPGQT

Experiment [6] has as its target T6, GST-MAST2 PDZ domain 1 fusion protein (human), Q6P0Q8.
T6 chain: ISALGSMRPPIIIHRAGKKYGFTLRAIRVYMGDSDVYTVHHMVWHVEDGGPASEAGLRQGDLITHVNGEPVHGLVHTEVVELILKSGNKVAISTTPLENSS

For experiment [7], the target named is T7, GST-MINT1 PDZ domain 1 fusion protein (human).
T7 chain: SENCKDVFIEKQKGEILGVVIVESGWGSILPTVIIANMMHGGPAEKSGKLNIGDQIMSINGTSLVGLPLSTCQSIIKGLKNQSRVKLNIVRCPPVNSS

Experiment [8] deals with T8, GST-MINT1 PDZ domain 2 fusion protein (human).
T8 chain: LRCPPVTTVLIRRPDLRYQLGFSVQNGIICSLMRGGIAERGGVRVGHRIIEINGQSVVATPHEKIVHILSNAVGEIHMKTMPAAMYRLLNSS

Experiment [9] has as its target T9, GST-MINT1 PDZ domains 1,2 fusion protein (human).
T9 chain: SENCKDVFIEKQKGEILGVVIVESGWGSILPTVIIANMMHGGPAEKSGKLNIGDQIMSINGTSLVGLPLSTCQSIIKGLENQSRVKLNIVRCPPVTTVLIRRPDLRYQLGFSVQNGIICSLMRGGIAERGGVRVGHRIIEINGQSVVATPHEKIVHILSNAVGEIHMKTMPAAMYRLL

Experiment [10] has as its target T10, GST-MUPP1 PDZ domain 3 fusion protein (human), O75970.
T10 chain: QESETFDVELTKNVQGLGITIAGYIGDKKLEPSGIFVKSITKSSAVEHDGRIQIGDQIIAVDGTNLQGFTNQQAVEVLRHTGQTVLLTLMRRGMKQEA

The target in experiment [11] is GST-PAR3 PDZ domain 3 fusion protein (human), Q8TEW0.
Experiment [12] deals with GST-PAR3L PDZ domain 3 fusion protein (human), Q8TEW8.
The target of experiment [13] is T11, GST-RIM2 PDZ domain 1 fusion protein (human).
T11 chain: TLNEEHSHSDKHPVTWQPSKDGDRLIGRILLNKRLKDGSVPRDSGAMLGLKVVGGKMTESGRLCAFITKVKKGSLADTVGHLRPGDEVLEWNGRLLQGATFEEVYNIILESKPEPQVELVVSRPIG

In experiment [14] the target is T12, GST-SITAC 18 PDZ domain 1 fusion protein (human), Q9H190.
T12 chain: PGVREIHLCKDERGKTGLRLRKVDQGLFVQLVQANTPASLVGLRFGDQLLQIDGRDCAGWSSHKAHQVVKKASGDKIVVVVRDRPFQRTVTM

The target in experiment [15] is T13, GST-SITAC 18 PDZ domain 2 fusion protein (human), Q9H190.
T13 chain: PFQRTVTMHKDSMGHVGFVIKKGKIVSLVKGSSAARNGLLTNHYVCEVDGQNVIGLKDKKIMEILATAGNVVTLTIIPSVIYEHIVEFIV

Experiment [16] addresses T14, GST-Syntrophin 1 alpha PDZ domain 1 fusion protein (human), Q13424.
T14 chain: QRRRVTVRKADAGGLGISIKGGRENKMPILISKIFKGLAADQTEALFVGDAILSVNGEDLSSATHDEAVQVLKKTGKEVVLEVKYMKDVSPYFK

No end group written: not given here. *: point of attachment. Biotin = O=C1N[C@H]2[C@H](CS[C@H]2CCCCC(=O)*)N1

Chain of GST-PAR3 PDZ domain 3 fusion protein (human), Q8TEW0 (Q8TEW0 other isoform, or with tags, fused parts or gaps): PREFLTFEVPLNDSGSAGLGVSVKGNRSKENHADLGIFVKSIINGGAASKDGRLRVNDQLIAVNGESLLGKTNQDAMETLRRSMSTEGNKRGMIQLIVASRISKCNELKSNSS
Chain of GST-PAR3L PDZ domain 3 fusion protein (human), Q8TEW8 (Q8TEW8 other isoform, or with tags, fused parts or gaps): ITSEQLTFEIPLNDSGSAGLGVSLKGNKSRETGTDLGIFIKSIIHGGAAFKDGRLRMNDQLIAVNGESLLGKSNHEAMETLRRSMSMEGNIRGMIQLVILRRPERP

In [1], Biotin-YGRKKRRQRRRARSDRTIWA [Peptide #1829 (biotin-…)] returned an ODmax (450 nm) of 1.4 OD 450 nm. In experiment [2], this molecule showed an EC50 of 7 nM and an ODmax (450 nm) of 2.9 OD 450 nm.

As to Biotin-YGRKKRRQRRRARSDRTIIA [Peptide #1830 (biotin-…)], in experiment [1], the EC50 was below 2000 nM and the ODmax (450 nm) stood at 1.2 OD 450 nm. Moreover, in experiment [2], the EC50 is below 20 nM and the ODmax (450 nm) worked out at 1.8 OD 450 nm.

For Biotin-YGRKKRRQRRRARGTRLVWV [Peptide #1844 (biotin-…)], the EC50 in experiment [1] and in experiment [2] was below 20 nM throughout. For the same molecule, the figures for the ODmax (450 nm) in experiment [1] and in [2] were 2.4 OD 450 nm and 2.6 OD 450 nm, respectively.

For Biotin-YGRKKRRQRRRARGRRETWV [Peptide #1854 (biotin-…)], in experiment [1], the EC50 was below 20 nM and the ODmax (450 nm) worked out at 2.1 OD 450 nm. Further, in [2], the ODmax (450 nm) stood at 2.8 OD 450 nm.

In [3], Biotin-YGRKKRRQRRREKHFRETEV [Peptide #AA353 (biotin-…)] displayed an EC50 below 2 nM and an ODmax (450 nm) of 3 OD 450 nm.

Regarding Biotin-YGRKKRRQRRRARGDRTIIY [Peptide #1848 (biotin-…)], in experiment [1], the EC50 is below 2000 nM and the ODmax (450 nm) worked out at 1.2 OD 450 nm. Moreover, in experiment [2], the EC50 is below 20 nM and the ODmax (450 nm) came out at 2.2 OD 450 nm.

Consider Biotin-YGRKKRRQRRRSRTDRKYQI [Peptide #1839 (biotin-…)], for which, in [1], the EC50 came out at 130 nM and the ODmax (450 nm) was determined as 1.6 OD 450 nm. Further, in experiment [2], the EC50 was below 20 nM and the ODmax (450 nm) came to 2.5 OD 450 nm.

Take Biotin-YGRKKRRQRRRARGDRKIRV [Peptide #1836 (biotin-…)]: the ODmax (450 nm) in [1] was 0.3 OD 450 nm; in experiment [2] it was 2.6 OD 450 nm. Besides, the EC50 in experiment [2] was below 10 nM.

Take Biotin-YGRKKRRQRRRARGDRYRIV [Peptide #1845 (biotin-…)]: in experiment [1], the EC50 was below 100 nM and the ODmax (450 nm) turned out to be 2.2 OD 450 nm. In [2], this molecule displayed an EC50 below 100 nM and an ODmax (450 nm) of 2.3 OD 450 nm.

In experiment [1], Biotin-YGRKKRRQRRRARGDRLVSL [Peptide #1843 (biotin-…)] came in with an EC50 below 2000 nM and an ODmax (450 nm) of 1.2 OD 450 nm. For the same molecule, in experiment [2], the EC50 came out at 17 nM and the ODmax (450 nm) is 2.2 OD 450 nm.

As for Biotin-YGRKKRRQRRRQDERRLIVL [Peptide #1842 (biotin-…)], in [1], the EC50 was below 1000 nM and the ODmax (450 nm) was 1.9 OD 450 nm. In addition, in [2], the EC50 was determined as 35 nM and the ODmax (450 nm) turned out to be 2.3 OD 450 nm.

Biotin-YGRKKRRQRRRARGDRKYIV [Peptide #1838 (biotin-…)]: in experiment [1], the EC50 is below 100 nM and the ODmax (450 nm) worked out at 2.6 OD 450 nm. In experiment [2], this molecule gave a 50% effective concentration (EC50) below 100 nM and an ODmax (450 nm) of 2.6 OD 450 nm.

As to YGRKKRRQRRRSTNSVRLML (not fully specified), the EC50 in experiment [1] was 120 nM; in [5], 90 nM; in [6], 110 nM; in experiment [8], below 2000 nM; in experiment [9], 180 nM; in [10], 290 nM. Also, the EC50 in [11] is 18 nM; in experiment [12], 100 nM; in experiment [13], 47 nM; in [14], below 1000 nM; in experiment [15], 90 nM; in [16], 160 nM. Also, the figures for the EC50 in experiment [3] and in experiment [2] were below 1000 nM and 33 nM, respectively. Besides, the ODmax (450 nm) in experiment [1] came to 1.9 OD 450 nm; in experiment [4], 0.63 OD 450 nm; in experiment [5] it was 2.1 OD 450 nm; in [6], 2.1 OD 450 nm; in experiment [7] it was 0.33 OD 450 nm; in experiment [8], 0.76 OD 450 nm. In addition, the ODmax (450 nm) in experiment [9] amounted to 1.9 OD 450 nm; in [10] it was 2.06 OD 450 nm; in experiment [11] it was 2.5 OD 450 nm; in [12], 1.97 OD 450 nm; in experiment [13], 2.1 OD 450 nm; in experiment [14], 1.7 OD 450 nm. The ODmax (450 nm) in experiment [15] is 1.95 OD 450 nm; in experiment [16], 2.05 OD 450 nm; in [3] it was 1.82 OD 450 nm; in experiment [2] it was 2.2 OD 450 nm.

Turning to Biotin-YGRKKRRQRRRARTDRKVEV [Peptide #1837 (biotin-…)], the ODmax (450 nm) in experiment [1] stood at 0.37 OD 450 nm; in experiment [2], 1.8 OD 450 nm. In addition, the EC50 in experiment [2] is below 20 nM.

As to Biotin-YGRKKRRQRRRSRTDRKYWA [Peptide #1832 (biotin-…)], the concentration giving a half-maximal response (EC50) is 200 nM in experiment [1] and below 20 nM in experiment [2]. In addition, the ODmax (450 nm) in experiment [1] was 0.6 OD 450 nm; in [2], 2.1 OD 450 nm.
